Measurements as given in patent US20220289816A1, “IMMUNOTHERAPY WITH B*07 RESTRICTED PEPTIDES AND COMBINATION OF PEPTIDES AGAINST CANCERS AND RELATED METHODS” (Immatics Biotechnologies GmbH, priority 2018, published 2022).

Target: HLA-B*07 (Homo sapiens, UniProt P01889)
Assay: MHC binding assay (UV-ligand exchange, ELISA of stabilized MHC complexes)
Settings: peptide exchange yield on HLA-B*07, UV-ligand exchange
Summary of the method: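 Peptide–MHC complexes were made by UV-ligand exchange, in which a UV-cleavable peptide is replaced by the test peptide. Exchange yield was measured by ELISA of stabilized complexes on streptavidin-coated plates, using HRP anti-β2m detection (1 h, 37 °C), TMB substrate and absorbance at 450 nm.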

Row | Peptide exchange | Substance
1 | ++++ (>75% = ++++) | 465 (VPKSLPYVL; listed as Homo sapiens) [compound 465]
2 | ++++ (>75% = ++++) | 463 (LPTDLFNSVM; listed as Homo sapiens) [compound 463]
3 | +++ (>50 = +++) | 328 (LPLHRGDLVI; listed as Homo sapiens) [compound 328]
4 | ++ (>20% = ++) | 486 (TPTRPLPSA; listed as Homo sapiens) [compound 486]
5 | +++ (>50 = +++) | 322 (RAVPVGSGL; listed as Homo sapiens) [compound 322]
6 | ++++ (>75% = ++++) | 498 (RPQPQPRPAL; listed as Homo sapiens) [compound 498]
7 | ++++ (>75% = ++++) | 473 (LPGEREAAL; listed as Homo sapiens) [compound 473]
8 | ++ (>20% = ++) | 448 (TVYGEPRKL; listed as Homo sapiens) [compound 448]
9 | ++++ (>75% = ++++) | 359 (SPRRLVELAGQSL; listed as Homo sapiens) [compound 359]
10 | ++++ (>75% = ++++) | 487 (IPWFIKTAF; listed as Homo sapiens) [compound 487]
11 | +++ (>50 = +++) | 480 (VPAAPTKAL; listed as Homo sapiens) [compound 480]
12 | ++++ (>75% = ++++) | 299 (SPFSGGPVSF; listed as Homo sapiens) [compound 299]
13 | ++++ (>75% = ++++) | 376 (FPQVGRTAL; listed as Homo sapiens) [compound 376]
14 | ++ (>20% = ++) | 304 (SPLIGDFPAF; listed as Homo sapiens) [compound 304]
15 | ++++ (>75% = ++++) | 462 (MPLLADVRL; listed as Homo sapiens) [compound 462]
16 | + (>10% = +) | 492 (IPFSVDEI; listed as Homo sapiens) [compound 492]
17 | ++++ (>75% = ++++) | 367 (APQVHIFSL; listed as Homo sapiens) [compound 367]
18 | +++ (>50 = +++) | 309 (FAFYGGKSL; listed as Homo sapiens) [compound 309]
19 | ++++ (>75% = ++++) | 296 (SPLLMQRTL; listed as Homo sapiens) [compound 296]
20 | ++ (>20% = ++) | 472 (LPMPAITWY; listed as Homo sapiens) [compound 472]
21 | +++ (>50 = +++) | 301 (FPAFLEAM; listed as Homo sapiens) [compound 301]
22 | ++++ (>75% = ++++) | 382 (RPGPQRTTSV; listed as Homo sapiens) [compound 382]
23 | ++++ (>75% = ++++) | 474 (VPKADLLTL; listed as Homo sapiens) [compound 474]
24 | ++++ (>75% = ++++) | 303 (RPPPPCIAL; listed as Homo sapiens) [compound 303]
25 | +++ (>50 = +++) | 494 (LPLRAVNLNL; listed as Homo sapiens) [compound 494]
26 | +++ (>50 = +++) | 356 (RPFLRLPSL; listed as Homo sapiens) [compound 356]
27 | +++ (>50 = +++) | 383 (KPRATWTLKL; listed as Homo sapiens) [compound 383]
28 | +++ (>50 = +++) | 340 (APEPRAALL; listed as Homo sapiens) [compound 340]
29 | +++ (>50 = +++) | 488 (LPLGGLPLLI; listed as Homo sapiens) [compound 488]
30 | ++++ (>75% = ++++) | 479 (APHAGGALL; listed as Homo sapiens) [compound 479]

More lines, now with the values behind:

Row | Substance | Peptide exchange
31 | 204 (FPYSGDKILV; listed as Homo sapiens) [compound 204] | +++ (>50 = +++)
32 | 101 (KPGLPGLK; listed as Homo sapiens) [compound 101] | + (>10% = +)
33 | 294 (VPKPAIPSSSVL; listed as Homo sapiens) [compound 294] | ++++ (>75% = ++++)
34 | 65 (FPNVYSTLVL; listed as Homo sapiens) [compound 65] | ++++ (>75% = ++++)
35 | 167 (NVNPARKGL; listed as Homo sapiens) [compound 167] | ++++ (>75% = ++++)
36 | 193 (LPALKEEAF; listed as Homo sapiens) [compound 193] | ++++ (>75% = ++++)
37 | 126 (MPREDAHF; listed as Homo sapiens) [compound 126] | + (>10% = +)
38 | 92 (TSPLPPTV; listed as Homo sapiens) [compound 92] | +++ (>50 = +++)
39 | 80 (SALPTTISF; listed as Homo sapiens) [compound 80] | +++ (>50 = +++)
40 | 91 (FPRLVGPDFF; listed as Homo sapiens) [compound 91] | ++++ (>75% = ++++)
41 | 236 (TPELKSSIL; listed as Homo sapiens) [compound 236] | +++ (>50 = +++)
42 | 197 (RPSGTAGAALLA; listed as Homo sapiens) [compound 197] | ++ (>20% = ++)
43 | 76 (KPKVESQAL; listed as Homo sapiens) [compound 76] | ++++ (>75% = ++++)
44 | 190 (RLAHVRARL; listed as Homo sapiens) [compound 190] | +++ (>50 = +++)
45 | 206 (TPRIGPKVSL; listed as Homo sapiens) [compound 206] | +++ (>50 = +++)
46 | 170 (APEGKRLGF; listed as Homo sapiens) [compound 170] | ++++ (>75% = ++++)
47 | 181 (LPVSPARAL; listed as Homo sapiens) [compound 181] | +++ (>50 = +++)
48 | 62 (KPQSTISGL; listed as Homo sapiens) [compound 62] | +++ (>50 = +++)
49 | 149 (SPSSVFTSK; listed as Homo sapiens) [compound 149] | +++ (>50 = +++)
50 | 103 (REPIMKADML; listed as Homo sapiens) [compound 103] | ++ (>20% = ++)
51 | 30 (YPGFTKRL; listed as Homo sapiens) [compound 30] | +++ (>50 = +++)
52 | 37 (LPPPRALTL; listed as Homo sapiens) [compound 37] | +++ (>50 = +++)
53 | 234 (HPRAPGEQQRL; listed as Homo sapiens) [compound 234] | +++ (>50 = +++)
54 | 22 (LPQLKPAL; listed as Homo sapiens) [compound 22] | ++++ (>75% = ++++)
55 | 276 (RPVWDVRSA; listed as Homo sapiens) [compound 276] | ++++ (>75% = ++++)
56 | 98 (FPCSALLACF; listed as Homo sapiens) [compound 98] | ++++ (>75% = ++++)

Row | Substance | Peptide exchange
57 | 174 (IPVTSSVTL; listed as Homo sapiens) [compound 174] | ++++ (>75% = ++++)
58 | 238 (LPRAGGAFLM; listed as Homo sapiens) [compound 238] | ++++ (>75% = ++++)
59 | 7 (RPSQLAPATL; listed as Homo sapiens) [compound 7] | +++ (>50 = +++)
60 | 246 (RPILKEQSSSSF; listed as Homo sapiens) [compound 246] | ++++ (>75% = ++++)
61 | 129 (MTLPATTLTL; listed as Homo sapiens) [compound 129] | ++ (>20% = ++)
62 | 134 (VAAAARLTL; listed as Homo sapiens) [compound 134] | +++ (>50 = +++)
63 | 186 (VPLPAGGGTVLT; listed as Homo sapiens) [compound 186] | + (>10% = +)
64 | 11 (APLPRPGAV; listed as Homo sapiens) [compound 11] | ++++ (>75% = ++++)
65 | 169 (RPFSVSSISQL; listed as Homo sapiens) [compound 169] | ++++ (>75% = ++++)
66 | 288 (LHAMNSLSAM; listed as Homo sapiens) [compound 288] | +++ (>50 = +++)
67 | 104 (RPLPNSVIHV; listed as Homo sapiens) [compound 104] | +++ (>50 = +++)
68 | 14 (AVHEIGHSL; listed as Homo sapiens) [compound 14] | +++ (>50 = +++)
69 | 191 (KPKAVKPKAA; listed as Homo sapiens) [compound 191] | ++++ (>75% = ++++)
70 | 217 (SPGDKRLAAYL; listed as Homo sapiens) [compound 217] | +++ (>50 = +++)
71 | 71 (APFAPLHGGGSL; listed as Homo sapiens) [compound 71] | +++ (>50 = +++)
72 | 96 (QPSLVQAIF; listed as Homo sapiens) [compound 96] | ++++ (>75% = ++++)
73 | 125 (SPAKQFNIY; listed as Homo sapiens) [compound 125] | ++ (>20% = ++)
74 | 47 (RPRQTGALM; listed as Homo sapiens) [compound 47] | ++++ (>75% = ++++)
75 | 34 (APMAPGRSP; listed as Homo sapiens) [compound 34] | +++ (>50 = +++)
76 | 27 (RIRVTSEVL; listed as Homo sapiens) [compound 27] | +++ (>50 = +++)
77 | 248 (KPYDGIPAS; listed as Homo sapiens) [compound 248] | +++ (>50 = +++)
78 | 264 (APRPGNWIL; listed as Homo sapiens) [compound 264] | +++ (>50 = +++)
79 | 240 (RVMLPKAAL; listed as Homo sapiens) [compound 240] | +++ (>50 = +++)
80 | 130 (GAYDKARYL; listed as Homo sapiens) [compound 130] | ++ (>20% = ++)
81 | 18 (MALSVLRLAL; listed as Homo sapiens) [compound 18] | ++ (>20% = ++)
